Results from patent publication US20260042862A1 (AGENCY FOR SCIENCE TECHNOLOGY AND RESEARCH, published 2026).

Assays:
[1] = target: T1, recombinant human GPC-3 protein (human, UniProt P51654 25-559, limits assumed); assay: binding ELISA with biotin-hGPC-3, EC50 calculated from the curves of FIG. 1A to 1C
T1 construct: also called glypican-3; recombinant GPC-3 protein

[2] = target: T1, recombinant human GPC-3 protein; assay: SPR, Biacore T200
Protocol: Affinity of 24 anti-GPC-3 IgG₁ antibodies was measured via Surface Plasmon Resonance (SPR) analysis using Biacore™ T200 system and shown in Table E3 (below).

B1: anti-GPC-3 IgG1 clone 1D3 (antibody, V domains shown)
VH: QVQLVQSGAEVKKPGASVKVSCKASGYTFTGYYMHWVRQAPGQGLEWMGWINPNSGGTNYAQNFQGRVTITRDTSASTAYMELSSLRSEDTAVYYCARGSWQTGSFDIWGQGTT
VL: SYELTQPPSVSGTPGQSVTISCSGSNSNLGSNYVYWYQVVPGTAPKLVIYRNKYRPPGVPDRFSGSKSGTSASLAISGLRSDDEAEYYCSGWDDSLSGRLFGGGTK
notes: Tested as IgG1; also called monoclonal antibody 1D3
- EC50 [1]: 0.00117 µM
- Kd [2]: 0.0172 µM
- koff [2]: 0.00293 s⁻¹
- kon [2]: 170000 M⁻¹ s⁻¹

B2: anti-GPC-3 IgG1 clone 2F1 (antibody, V domains shown)
VH: EVQLVQSGAEVKKPGSSVKVSCKASGGTFSSYAISWVRQAPGQGLEWMGGIIPIFGTANYAQKFQGRVTITADESTSTAYMELSSLRSEDTAVYYCARDSPYYYYMDVWGKGTT
VL: DVVMTQSPLFLPVTLGQPASISCRSSQSLVYSDGNTYLSWFQQRPGQSPRRLVYKVSSRDSGVPDRFSGSGSGTDFTLKISRVEAEDVGVYYCMQGTHWPRTFGQGTK
notes: Tested as IgG1; also called monoclonal antibody 2F1
- EC50 [1]: 0.00261 µM
- Kd [2]: 0.0147 µM
- koff [2]: 0.00181 s⁻¹
- kon [2]: 124000 M⁻¹ s⁻¹

B3: anti-GPC-3 IgG1 clone 2B5 (antibody, V domains shown)
VH: QVQLQESGGGVVQPGRSLRLSCAASGFTFSSYAMHWVRQAPGKGLEWVAVISYDGSNKYYADSVKGRFTISRDNSKNTLYLQMNSLRAEDTAVYYCAKEGTYYYDSSGYWDYYYGMDVWGQGTT
VL: DVVMTQSPLSLPVTPGEPASISCRSSQSLLDSDGYNFLDWYVQKPGQSPQRLIYLGSIRASGVPDRFSGSGSGTDFTLKISRVEADDVGVYYCMQALQTPWTFGQGTK
notes: Tested as IgG1; also called monoclonal antibody 2B5
- EC50 [1]: 0.0119 µM
- Kd [2]: 0.0124 µM
- koff [2]: 0.0038 s⁻¹
- kon [2]: 306000 M⁻¹ s⁻¹

B4: anti-GPC-3 IgG1 clone 3C12 (antibody, V domains shown)
VH: QVTLKESGPTLVKPTQTLTLTCTFSGFSLSTSGVGVGWIRQPPGKALEWLALIYWNDDKRYSPSLKSRLTITKDTSKNQVVLTMTNMDPVDTATYYCAHSRIAARRVLDYWGQGTL
VL: QSVLTQPPSASVAPGKTARITCGGNNIGSKSVHWYQQKPGQSPVLVIYQDTKRPSGIPERFSGSNSGNTATLTISGAQPMDEADYYCQAWYSTIMVFGGGTK
notes: Tested as IgG1; also called monoclonal antibody 3C12
- EC50 [1]: 0.00676 µM
- Kd [2]: 0.0312 µM
- koff [2]: 0.00783 s⁻¹
- kon [2]: 251000 M⁻¹ s⁻¹

B5: anti-GPC-3 IgG1 clone 4A5 (antibody, V domains shown)
VH: EVQLVQSGAEVKKPGASVKVSCKASGYTFTSYGISWVRQAPGQGLEWMGWISAYNGNTNYAQKLQGRVTMTTDTSTSTAYMELRSLRSDDTAVYYCARDGLSSSWFYYYYGMDVWGQGTT
VL: not shown
notes: Tested as IgG1; also called monoclonal antibody 4A5
- EC50 [1]: 0.0156 µM
- Kd [2]: 0.0125 µM
- koff [2]: 0.000946 s⁻¹
- kon [2]: 75700 M⁻¹ s⁻¹

B6: anti-GPC-3 IgG1 clone 1H10 (antibody, V domains shown)
VH: QLQLQESGGGLVQPGGSLRLSCAASGFTFSSYVMSWVRQAPGKGLEWVSTISGSGGSTYYADSVKGRFTISRDNSKNTLYLQMSSLRAEDTAVYYCVMGWYFDLWGRGTL
VL: EIVLTQSPGTLSLSPGERATLSCRASQSVSSSYLAWYQQKPGQAPRLLIYDASNRATGIPARFSGSGSGTDFTLTISSLEPEDFAVYYCQQRSNWPPRATFGQGTR
notes: Tested as IgG1; also called monoclonal antibody 1H10
- EC50 [1]: 0.00165 µM
- Kd [2]: 0.0197 µM
- koff [2]: 0.0147 s⁻¹
- kon [2]: 748000 M⁻¹ s⁻¹

B7: anti-GPC-3 IgG1 clone 3A9 (antibody, V domains shown)
VH: QVQLQQWGAGLLKPSETLSLTCAVYGGSFSGYYWSWIRQPPGKGLEWIGEINHSGSTNYNPSLKSRVTISVDTSKNQFSLKLSSVTAADTAVYYCARLYKRRPFDYWGQGTL
VL: not shown
notes: Tested as IgG1; also called monoclonal antibody 3A9
- EC50 [1]: 0.0108 µM
- Kd [2]: 0.0124 µM
- koff [2]: 0.00188 s⁻¹
- kon [2]: 151000 M⁻¹ s⁻¹

B8: anti-GPC-3 IgG1 clone 1F4 (antibody, V domains shown)
VH: QVQLQQWGAGLLKPSETLSLTCAVYGGSFSGYYWSWIRQPPGKGLEWIGEINHSGSTNYNPSLKSRVTISVDTSKNQFSLKLSSVTVADTAVYYCARLYKRRPFDYWGQGTL
VL: ETTLTQSPGTLSLSPGERATLSCRASQSVSSTYLAWYQQKPGQAPRLLIYGASRRATGSPERFSGGGSGTDFTLTISRLEPEDFAVYYCQHYGNSPGTFGQGTK
notes: Tested as IgG1; also called monoclonal antibody 1F4
- EC50 [1]: 0.0103 µM
- Kd [2]: 0.0072 µM
- koff [2]: 0.00129 s⁻¹
- kon [2]: 179000 M⁻¹ s⁻¹

B9: anti-GPC-3 IgG1 clone 1A12 (antibody, V domains shown)
VH: QVQLQQWGAGLLKPSETLSLTCAAYGGSFSGYYWSWIRQPPGKGLEWIGEINHSGSTNYNPSLKSRVTISVDTSKNQFSLKLSSVTAADTAVYYCARLYKRRPFDYWGQGTL
VL: ETTLTQSPGTLSLSPGERATLSCRASQSISSIYLAWYQQKPGQAPRLLIYGASRRATGIPDRFSGSGSGTDFTLTISRLEPEDFAVYYCQQYGSSLRTFGQGTK
notes: Tested as IgG1; also called monoclonal antibody 1A12
- EC50 [1]: 0.0102 µM
- Kd [2]: 0.0276 µM
- koff [2]: 0.00315 s⁻¹
- kon [2]: 114000 M⁻¹ s⁻¹

B10: anti-GPC-3 IgG1 clone 3G12 (antibody, V domains shown)
VH: QVQLQQWGAGLLKPSETLSLTCAVYGGSFSGYYWSWIRQPPGKGLEWIGEINHSGSTNYNPSLKSRVTISVDTSKNQFSLKLSSVTAADTAVYYCARLYKRRPFDYWGQGTL
VL: ETTLTQSPGTLSLSPGERATLSCRASQSVSSSYLAWYQQKRGQAPRLLIYGASRRATGIPDRFSGSGSGSDFTLTISRLEPEDFAVYYCQQYGSSPSTFGQGTK
notes: Tested as IgG1; also called monoclonal antibody 3G12
- EC50 [1]: 0.011 µM
- Kd [2]: 0.0125 µM
- koff [2]: 0.00169 s⁻¹
- kon [2]: 135000 M⁻¹ s⁻¹

B11: anti-GPC-3 IgG1 clone 4G4 (antibody, V domains shown)
VH: QVQLQQWGAGLLKPSETLSLTCAVYGGSFSGYYWSWIRQPPGKGLEWIGEINHSGSTNYNPSLKSRVTISVDTSKNQFSLKLSSVTAADTAVYYCARLYKRRPFDYWGQGTL
VL: ETTLTQSPGTLSLSPGERATLSCRASQSVSSSYLAWYQQKPGQAPRLLIYNASRRATGIPDRFSGSGSGADFTLTISRLDPEDFAVYFCQQYGSSPQTFGQGTK
notes: Tested as IgG1; also called monoclonal antibody 4G4
- EC50 [1]: 0.0123 µM
- Kd [2]: 0.0129 µM
- koff [2]: 0.00195 s⁻¹
- kon [2]: 151000 M⁻¹ s⁻¹

B12: anti-GPC-3 IgG1 clone 1E1 (antibody, V domains shown)
VH: QVQLQQWGAGLLKPSETLSLTCAVYGGSFSGYYWSWIRQPPGKGLEWIGEINHSGSTNYNPSLKSRVTISVDTSKNQFSLKLSSVTAADTAVYYCARLYKRRPFDYWGQGTL
VL: VTTLTQSPGTLSLSPGERATLSCRASESVSSRYLAWYQQRPGQAPRLLIYGASRRATGSPERFSGGGSGTDFTLTISRLEPEDFAVYYCQHYGNSPGTFGQGTK
notes: Tested as IgG1; also called monoclonal antibody 1E1
- EC50 [1]: 0.0501 µM
- Kd [2]: 0.0162 µM
- koff [2]: 0.00233 s⁻¹
- kon [2]: 144000 M⁻¹ s⁻¹

B13: anti-GPC-3 IgG1 clone 1C4 (antibody, V domains shown)
VH: QVQLVQSGGGLVKPGRSLRLSCTASGFTFGDYAMHWVRQAPGKGLEWVAVISYDGSNKYYADSVKGRFTISRDNSKNTLYLQMNSLRAEDTAVYYCARDYGDYYRPYGMDVWGQGTT
VL: DIQMTQSPSTLSASVGDRVTITCRASQSISKWLAWYQHKPGKAPKVLIYKASTLQSGVPSRFSGSGSGTEFTLTISSLQPEDFATYYCQQLNSYPLTFGGGTK
notes: Tested as IgG1; also called monoclonal antibody 1C4
- EC50 [1]: 0.00195 µM
- Kd [2]: 0.0141 µM
- koff [2]: 0.0134 s⁻¹
- kon [2]: 949000 M⁻¹ s⁻¹

B14: anti-GPC-3 IgG1 clone 4F9 (antibody, V domains shown)
VH: EVQLVQSGAEVKKPGASVKVSCKASGYTFRNYGISWVRQAPGQGLEWMGWISAYNGNTNYAQKLQGRVTMTTDTSTSTAYMELRSLRSDDTAVYYCARADSSSWYVGTYYYYYGMDVWGQGTT
VL: not shown
notes: Tested as IgG1; also called monoclonal antibody 4F9
- EC50 [1]: 0.00529 µM
- Kd [2]: 0.0105 µM
- koff [2]: 0.00172 s⁻¹
- kon [2]: 164000 M⁻¹ s⁻¹

B15: anti-GPC-3 IgG1 clone 3C6 (antibody, V domains shown)
VH: QVQLQESGGGVVQPGRSLRLSCAASGFTFSSYAMHWVRQAPGKGLEWVAVISYDGSNKYYADSVKGRFTISRDNSKNTLYLQMNSLRAEDTAVYYCAYGRYNWNLYFDYWGQGTL
VL: NFMLTQPHSVSESPGKTVTISCTGSSGSIASNYVQWYQQRPGSVPTTVIYEDNQRPSGVPDRFSGSIDSSSNSASLTISGLKTEDEADYYCQSFDSSNYWVFGGGTK
notes: Tested as IgG1; also called monoclonal antibody 3C6
- EC50 [1]: 0.0209 µM
- Kd [2]: 0.00818 µM
- koff [2]: 0.000472 s⁻¹
- kon [2]: 57700 M⁻¹ s⁻¹

B16: anti-GPC-3 IgG1 clone 3D12 (antibody, V domains shown)
VH: EVQLVQSGAEVKKPGSSVKVSCKASGGTFSSYAISWVRQAPGQGLEWMGGIIPIFGTANYAQKFQGRVTITADKSTSTAYMELSSLRSEDTAVYYCARGIAARPSYYYYMDVWGKGTT
VL: not shown
notes: Tested as IgG1; also called monoclonal antibody 3D12
- EC50 [1]: 0.0456 µM
- Kd [2]: 0.0324 µM
- koff [2]: 0.0035 s⁻¹
- kon [2]: 108000 M⁻¹ s⁻¹

B17: anti-GPC-3 IgG1 clone 1D2 (antibody, V domains shown)
VH: EVQLVQSGAEVKKPGSSVKVSCKASGGTFSSYAISWVRQAPGQGLEWMGGIIPIFGTANYAQKFQGRVTITADKSTSTAYMELSSLRSEDTAVYYCAREWQQQLVPLGYMDVWGKGTT
VL: ETTLTQSPGTLSLSPGERATLSCRASHSVSSNFLAWYQQKPGQAPRLLIYAASSRTTGVPDRFSGSGSGTDFTLTISRLEPEDSAVYYCQQYGYSPLYTFGQGTK
notes: Tested as IgG1; also called monoclonal antibody 1D2
- EC50 [1]: 0.00142 µM
- Kd [2]: 0.00418 µM
- koff [2]: 0.00257 s⁻¹
- kon [2]: 615000 M⁻¹ s⁻¹

B18: anti-GPC-3 IgG1 clone 4H1 (antibody, V domains shown)
VH: EVQLVQSGGGVVQPGRSLRLSCAASGFTFSSYAMHWVRQAPGKGLEWVAVISYDGSNKYYADSVKGRFTISRDNSKNTLYLQMNSLRAEDTAVYYCARAPGLEDYWGQGTL
VL: DIQMTQSPSSLSASVGDRVTITCRASQSISSYLNWYQQKPGTAPKLLIYAASSSLQSGVPSRFSGSGSGTDFALTISSLQPEDFATYYCLQDYNYPLTFGGGTK
notes: Tested as IgG1; also called monoclonal antibody 4H1
- EC50 [1]: 0.0041 µM
- Kd [2]: 0.0442 µM
- koff [2]: 0.0137 s⁻¹
- kon [2]: 311000 M⁻¹ s⁻¹

B19: anti-GPC-3 IgG1 clone 4G11 (antibody, V domains shown)
VH: QVQLQESGPGLVKPSGTLSLTCAVSGGSISSSNWWSWVRQPPGKGLEWIGEIYHSGSTNYNPSLKSRVTISVDKSKNQFSLKLSSVTAADTAVYYCARDTSGVAFDYWGQGTL
VL: EIVLTQSPGTLSLSPGERATLSCRASQSVSSSYLAWYQQKPGQAPRLLIYGASSRATGIPDRFSGGGSGTDFTLTISRLEPEDSAVYYCQQYDHSPTFGQGTK
notes: Tested as IgG1; also called monoclonal antibody 4G11
- EC50 [1]: 0.00759 µM
- Kd [2]: 0.0155 µM
- koff [2]: 0.00229 s⁻¹
- kon [2]: 147000 M⁻¹ s⁻¹

B20: anti-GPC-3 IgG1 clone 4A12 (antibody, V domains shown)
VH: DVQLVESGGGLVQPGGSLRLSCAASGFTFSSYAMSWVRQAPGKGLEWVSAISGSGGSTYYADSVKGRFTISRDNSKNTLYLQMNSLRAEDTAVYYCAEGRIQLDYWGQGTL
VL: LPVLTQPPSVSVSPGQTARITCSGYELGDKYAFWYQQKPGQSPVLVIYQDTKRPSGIPERFSGSSSGDTATLIISGTQILDEADYYCQAWDSSTHVVFGGGTK
notes: Tested as IgG1; also called monoclonal antibody 4A12
- EC50 [1]: 0.00661 µM
- Kd [2]: 0.0229 µM
- koff [2]: 0.00609 s⁻¹
- kon [2]: 266000 M⁻¹ s⁻¹
